Assay results from patent US20230416341A1, “IMPROVED THROMBIN INHIBITORS FOR TREATMENT OF THROMBOEMBOLIC CONDITIONS” (priority 2020, published 2023).

Tested on: occluded carotid artery
Experiment: Experimental thrombosis and thrombolysis of the carotid artery (electrolytic injury, rtPA/anticoagulant combination, vessel recanalization)
Assay type: in vivo, mice
Conditions: rtPA therapy alone, 10 mg/kg bolus/infusion, blood flow assessed for 60 minutes
Method: Thrombosis: Electrolytic injury was used to generate in situ thrombotic occlusion of the carotid artery in anaesthetised mice, as described (Jackson et al, Nature Medicine 2005; Schoenwaelder et al, J Biol Chem, 2007). Baseline blood flow through the carotid artery was measured using an ultrasound Doppler flow probe. The flow probe was removed, and vessel injury was delivered in the presence of stasis, through placement of a distal haemostatic clamp (Micro Serrefine Clamp, 18055-05, Fine Science Tools, Canada). Delivery of an electrical current (8 mA or 28 mA for 3 minutes) was achieved using a lesion making device (Model 53500, Ugo Basile, Comerio, VA, Italy), with the injury site flushed constantly with saline to prevent tissue dehydration. […]
Thrombolysis: Intravenous thrombolysis was commenced 15 minutes following stable thrombotic vessel occlusion, as monitored with the flow probe. rtPA was administered via jugular catheter using a Harvard Apparatus syringe pump (Cat #704504; Pump Elite 11 I/W Single Syringe Pump, NSW, Australia). […] Carotid artery blood flow was assessed for 60 minutes following commencement of treatment. […] Following thrombolytic therapy, return of carotid artery blood flow was assessed using the mean blood flow recorded with LabChart software (version 7.0, ADInstruments, NSW, Australia). […]

B1: rtPA: thrombolytic agent recombinant tissue plasminogen activator (protein, UniProt P00750 36-562, looked up)
Tissue-type plasminogen …: SYQVICRDEKTQMIYQQHQSWLRPVLRSNRVEYCWCNSGRAQCHSVPVKSCSEPRCFNGGTCQQALYFSDFVCQCPEGFAGKCCEIDTRATCYEDQGISYRGTWSTAESGAECTNWNSSALAQKPYSGRRPDAIRLGLGNHNYCRNPDRDSKPWCYVFKAGKYSSEFCSTPACSEGNSDCYFGNGSAYRGTHSLTESGASCLPWNSMILIGKVYTAQNPSAQALGLGKHNYCRNPDGDAKPWCHVLKNRRLTWEYCDVPSCSTCGLRQYSQPQFRIKGGLFADIASHPWQAAIFAKHRRSPGERFLCGGILISSCWILSAAHCFQERFPPHHLTVILGRTYRVVPGEEEQKFEVEKYIVHKEFDDDTYDNDIALLQLKSDSSRCAQESSVVRTVCLPPADLQLPDWTECELSGYGKHEALSPFYSERLKEAHVRLYPSSRCTSQHLLNRTVTDNMLCAGDTRSGGPQANLHDACQGDSGGPLVCLNDGRMTLVGIISWGLGCGQKDVPGVYTKVTNYLDWIRDNMRP
vessel recanalization: remains occluded
